This data set in a line: soluble on expression in E. coli; label from the status in PepcDB or PDB records.
For the sequence “MKIYYEHDADLGFILGKKVAVLGFGSQGHAHALNLKDSGVDVRVGLRKGSRSWEKAEAAGLRVLPVAEAVREADVVMVLLPDEKQAQVYREEVEPNLKEGGALAFAHGFNVHFGQIKPRKDLDVWMVAPKGPGHLVRSEYQKGSGVPALVAVHQDASGSAFPTALAYAKAIGAARAGVIATTFKDETETDLFGEQAVLCGGLTRLIRAGFETLVEAGYPPEMAYFETVHEVKLIVDLIYEAGLKGMRYSISNTAEYGDYTRGDLAVPLEETKRRMREILRQIQSGEFAREWMLENQVGSPVLEANRKRWAAHPIEEVGSRLRAMMPFLKARVMEEVG”, the “soluble on expression in E. coli” value was “soluble”. For “MSLQIAQVLVDVPTMQTNRPYSYRIPTAWQSQVQPGMRVVVPFGRGKRRVQGFVLALDDVTNFDGELKPIDAVVDLAPVLNTEALALTKWLAASTFSFQITCAQTMLPAVMRAKYEKQLRTTATTPATIRTTLFGDQSMVPFDDVATTPAIVSQLLRLQAAGQVDVYYQVKNQARRKTQTAVKAALTNEALQAAVDQVRAGATQQLAVLQGLLTLNGEQLSQKAFCTRFDVTDGAIRTAVQKGWLKKVAVEVYRDPYATSDIKTTKALQLNDEQQVAVDQITQAVDQAATTTFLLEGVTGSGKTEVYLQSMAAALVQGKTALMLVPEISLTPQMVQRVKGRFGKAVAVLHSGLSSGEKYDEWRRIQRGEAQVVVGARSAVFAPLKNLGLIVMDEEHESTYKQDDAPRYHARQVALWRSRYHNCPVVLGSATPSLETRARAEKGVYQRLLLADRVNRRPLPKVSIIDMKKEMQQHAESNFSAPLLVALQDRLERHEQSVLMLNRRGYSSFVLCRDCGFVLKCPNCDISLTLHMDTHTMKCHYCGHEEAIPRNCPNCHSRQIRYYGTGTEKVEEELQDLLPDANIIRMDNDTTRKKGAHAKLLAQFGSGEADILIGTQMIAKGLDFPNVTLVGVLNADTALGLPDFRASERTFQLLTQVSGRAGRAEKSGHVYIQTFNPDHYAIRFAQHHDYEGFFKYEMQMRHRGGYPPYYFTVQITASDLDEGVAAKRMYQLLQWLRPRLAPSTILLGPTPKPIARVNRRYYYQIVIKYKQEPNLAQTLTTLLHETQAQQRQGLQIGIDVEPLHFMEGHHHHHH”, the “soluble on expression in E. coli” value is given as “soluble”. Turning to “MSLRVFVCGCVHGSWDIVVDEVNKLVENGTKLDLIIVAGDLEAFITESDLLSYKRPNGTQGFGSFHKIANGEKHLPCKMLVIGGNNESTDIIFQLPFGGWITPDVYFAGRASQIYFGDLLITCTSGVYNVKNYWKKVYEHFPVRKKECYSVNHTRAFSNFQVYGLTQLNIFVTHDWPSGIPKMFRDIIPKKSLVDSDDSNDFGMQDYRKILEKKQPKYWFAAHHHIKFECEPNPGTKFIAVPRVIQDNWYSLQTFDEKPGDFMISGEWINILKKTEEYMKDPSVLKDIDWDEEWTKINSLPSADLPIKVPVMEYNNDYKVQTAKFCETYGIYNPNEGHHHHHH”, the “soluble on expression in E. coli” value was “soluble”.

As for “MGSDKIHHHHHHMARKPRIHYPGALYHVILRGNARQDIFHDPEDRYRFYLFLQEGAERFGHRILAFCLMTNHVHLAVQVGEVPLSRFMQNITFRYTRWQNWRMGKTGHLFQGRYKSFLVDGDAYLQELVAYIHLNPVRAGMTTKLGSYTWSSHRAYLGKEIIPWLNTETVLATYSSDTSTARKQYATFISDRVKEGHREEFHGKGSSDSRVIGDDHFVEAILERADRLPLRRPGLDMVVEVIKRLYRLDEEELASPGQKRWAAEARGVAAWAVQEFSSATLTDLAKRFGRDVSSMSAAVRRLEQRRKIDQGIAERLERVGRELEGAIFQA”, the “soluble on expression in E. coli” value is “not soluble”. Take “MSLEPKIVRFDLGKEYIILTSALYPEGIIRVNQICSIFVDKSYCSGNPWGDVINWCPSKSAIMFMTAAKNYTFKETDWGKFFISAGIGRSGEDAGCTINIGVFVDKGLNINGLVDLIRTVTEAKAGALRDLGYKFTGTVSDAIAVGSLPGNEYFIGPGTELGKKIAYDIRNTIVELLFKGDDEGHHHHHH”: the “soluble on expression in E. coli” value is “soluble”. Turning to “MGSDKIHHHHHHMTIAIIIATHGVAAEQLLKTTEMLIGEQENVATIDFVPGENAETIMEKYQAKLSGDLAHCDKVLFLVDTWGGSPFNAANRVSEGKDNMDIVTGVNVPMLVETFMARDDGPSLDELVAIALETGRTGVRALRYQEPETEPTAPTSEVPAQPAASQAEPQPAMVTPNQEGHLEIGLARIDDRLIHGQVATRWTKESRVSRIVVVSDEVAKDTVRATMLKSVAPPGVTAHVVNVDKMVRVYNNPEYAGERMMLLFTNPTDVLRLSDAGVDFKSINVGGMAYRDGKKMITNAVSVDDKDIAAFKALDAKGIELDVRKVSNDNRQYMMDLLKKNNLL”, the “soluble on expression in E. coli” value is reported as “not soluble”. In the case of “MSLAAEKLRLVADPWPPFTDALLLNGGLATDIVNTALKRAGYTTLYEQVPWARALLGLSEGRHDVLINAWFSEDRKKIGQFSAEYLLNRIRFIKRKESPIDALTHEQLHHYLIAVVRGYAYSPAFDSDVLLKKVPVQNFSTAVRMLAAERVDLTLEDEYVARYNLALEANEVRARVEFLPGSLSENSLHILVSLKNPHHAKIVADFDREIAAMKADGTYEELLRLHGLQGPPEEGHHHHHH”, the “soluble on expression in E. coli” value is reported as “soluble”. With “MDSGYWQSQFEDWLRHHHQEQDAAHDIFHFRRVWATAQTLGENSPVDWLVVLSACYFHDIVSLAKNHPQRHRSSILAAAETRRIFLRDFPDFPAEKLAGICHAIEAHSFSAKIAPTTPEAKIVQDADRLEALGAIGLARVFAVSGALGVALFDADDPFANRRPLNDKQFALDHFQTKLLKLPLTMQTERGKSLAQRNADFLVSYMAKLSAELKGDYETRDDAVIQMFATHQLEHHHHHH”, the “soluble on expression in E. coli” value is “soluble”. “MGHHHHHHSHGFYTIKEAERGVVTRFGKFSHLVEPGLNWKPTFIDEVKPVNVEAVRELAASGVMLTSDENVVRVEMNVQYRVTNPEKYLYSVTSPDDSLRQATDSALRGVIGKYTMDRILTEGRTVIRSDTQRELEETIRPYDMGITLLDVNFQAARPPEEVKAAFDDAIAARENEQQYIREAEA”: the “soluble on expression in E. coli” value is given as “soluble”. Consider “MTKSQKQTKQYLRIFDQQMSLYEHYARKNSLQSKSLFILLWLYYNPQGITQKQIVEKTYSTKQVVNATLKRWNEKNYIVFLKSQTDRREKKIILSSQGQEYAASIIAPLEKMEEAAFNSLSIQEQQTMIQLTGHYYQALLSQMQLYFVQGEGEKATKEKL”, for which the “soluble on expression in E. coli” value was “not soluble”. Consider “MGSDKIHHHHHHMRTNKVVWSEGLFLRPQLFQQQERYLEYYAHKRAATITPFFWGFAQYEIDREALSYGKLVLRSGKGVLPDGTPFDIPGHAELPEPLTITPDHLGKLIYLAVPLRLDNSDETIFDEYDMSSLARFYAYEADLSDTNAIRQGPKPVQLSRLRLKLVSESEMTESWIGLPLAKVRAIQPDGSVLLHLEDYIPPVTGYAASSLLSEWLTHLNGLVKMRADMLAKRLSNSDGKASASAEIVDYLLLQIFNKYEPSLDHLRNIPELPPIVLYQELAKFAGELSTFIRTKTRRPRPAPGYDHGKLYPSIRPLVDDVHELLNQILVRAGQMIPLEPKGNGVWSASVLPNELRSFSNLVLAVHAQLPMDVLQHQFSVQTKISAPQQLHELVRSHLPGLELQRLPVPPRQIPYSAGYVYFELMKSGPFWDKVSNAGAIALHVAGDFPALKMELWGIRDS”, for which the “soluble on expression in E. coli” value was “not soluble”. Turning to “MAHHHHHHMHTLVNFYTKGSDPVHKATIMPRGMSLGVTWKIPISDKYSQKIRDVQSEIDILMGGLVSEEIIFGKNNVTTGCSSDLQRATHIAQSLVMNYGVGINEENISMFLQDKKNISEEMKIKIDKSIQRILLDSYNRAKKVLNQHIDELHRVASALVEYETLTSDEIKLAMQGKHDQIRKNRELKQKEFNLKDSRIS”, the “soluble on expression in E. coli” value was “soluble”. Consider “AHHHHHHGSVNIMDEIIVVTTPTIPGYKIIEVKGIARGGIVMATHLGRDILALLRNIKGGEVKEYTQMMAEAREEALRRMIEHAKKLGANAVVNFRFATSNVGGGMAEVYAYGTAVVVEREK”, for which the “soluble on expression in E. coli” value was “not soluble”.

For “MSLSDWIDASFTTKQTDAAKSSSQTKPKSVNQVKLDVPLVNQMTTPRLYNGCEVTSLTMLMNYAHINVTKNELAAKITSVPLTYSDGEHGNPEYGFVGDITGNDPGLGVYHKPIYKLAKTETSQVKDLTGANFDTVIEQLEQGRPVWTITTASFAPVSTMQTWQTPQGSVKVTYDMHSVVIVGFNRTKKLIYINNPYGEKQQAVSWKNFEAAYNQMGKQAIVLTLPHEGHHHHHH”, the “soluble on expression in E. coli” value is “soluble”. Turning to “MAHHHHHHMKQSIVTPLRSPLHCATPLPLTFFPSYRRWLPVVRHASRRPHGVFEQRRRGRPHGSTKRVLRHCDAARRVAVVQQKLHVRHVPAIGTKKPTQSHIGSHKAAVAFHRHDSTFLNGVPPNHHTHRRSPRRQFVLRKQTKRFHQEGAVAPLGLVKNGPRPQRTAGITERVYSISLRVTFQKKVSLAAKPVHQLSIDALHALRGVLRRDTSVRKNNPLAHHSHRMLKNVQAVGTLWAKGRRVRLFSSKGTHNIRVYVVEDAQDIHQLMVAHKKNKFPARLHCLPLQGGKKVVNLVGVEPAISDVAKLDNYRRTSNPAILGIRNICQLQYLATAKNIAMNVSKRNQAGLSAADVYRLHVQKRHKICRSAKK”, the “soluble on expression in E. coli” value was “not soluble”.

In the case of “MAHHHHHHMRRTAFSLMIVPPESHRYAKATFHEGVHRQAPGDSTPWRDVASPLNRFKMWWLAPAAKGTMTAAWCMTIVMGAYCFSIQQDAKGTYLLNNVLLRTLHEEAMRADANQERANELQEYLKQRLEKLEAGGKAASRNMGGDAVKEGLINHELEISRERVRSDSIHQRNQQLVDELLKVRQELAVTRKKHSAALSEIDKLQKLLKACT”, the “soluble on expression in E. coli” value is “not soluble”.

Turning to “MGSDKIHHHHHHMSTVTTGRTLDANGDPVPGTGFELDPDSQFADRVRERTGPVTSHPTRPVWGIPLEGSGDTIRTLSVFGPGYGGPPEHYHEQSPERFEVERGSLTMMLDGTDHEVTAGETATVETGVTHTFRNDTDKRAVVITNIYSPGRLRQVLPTLGGLAHDDEGNPENPLQQALVADRLDGNTVFTRQERLEPLSRLLTPVAELAGYQGAYAKYTQPAFWERHVEQPDL”, the “soluble on expression in E. coli” value is on record as “not soluble”. To “MSSDFPTDPYSTAQQKWLYQDHLVLPTLEKLLKYNLKDKKVLDIGCGNGLNSTTFLQWGARKVVGFDNSQEMIENCKNLHKSSEQSSFHHLNVTDFQLDEKFHVATAVFVLQYVHDKEELRKAIRLIWERKLRNGWFRLWMEDL” belongs “not soluble”.

Consider “MIARKRRARTIHSRYPIGIYGSIVMTDIAQLLGKDADNLLQHRCMTIPSDQLYLPGHDYVDRVMIDNNRPPAVLRNMQTLYNTGRLAGTGYLSILPVDQGVEHSAGASFAANPLYFDPKNIVELAIEAGCNCVASTYGVLASVSRRYAHRIPFLVKLNHNETLSYPNTYDQTLYASVEQAFNMGAVAVGATIYFGSEESRRQIEEISAAFERAHELGMVTVLWAYLRNSAFKKDGVDYHVSADLTGQANHLAATIGADIVKQKMAENNGGYKAINYGYTDDRVYSKLTSENPIDLVRYQLANCYMGRAGLINSGGAAGGETDLSDAVRTAVINKRAGGMGLILGRKAFKKSMADGVKLINAVQDVYLDSKITIA”, for which the “soluble on expression in E. coli” value is on record as “soluble”.

Turning to “MERRSVQKKELLSTPVVPIDIKAFDAGPILEAMGKTAFQARNLHRAAEIYLRMLEDDCAVILTLAGSLVSAGQGLIVHDLIRKGLVDVIVATGANIVDQDFFEALGHRHYQGDPRADDEALRRLWIDRIYDTYIDEEELRHTDYTVAEIADGLEPRPYSSREFIWQMGRYLAERGLGEKRIVRRAYEKGVPIFVTAFSDSSAGFGLVYHQVKRPEAHVTIDSVADFRELTEIKLKAGTTGLVMLGGGVPKNFAQDIVVAAEVLGHRVEMHKYAIQITVADERDGGLSGSTLSEAQSWGKVDARLSQMVFAEATLAFPLLASYVWHRAPARAKRRYAELFREKAPA”, the “soluble on expression in E. coli” value is on record as “soluble”.

The record behind these values is the DeepSol protein solubility set.
